Patent US20220289850 (published 2022)

T1: cynomolgus integrin avb8 (cynomolgus)
T1 chain 1: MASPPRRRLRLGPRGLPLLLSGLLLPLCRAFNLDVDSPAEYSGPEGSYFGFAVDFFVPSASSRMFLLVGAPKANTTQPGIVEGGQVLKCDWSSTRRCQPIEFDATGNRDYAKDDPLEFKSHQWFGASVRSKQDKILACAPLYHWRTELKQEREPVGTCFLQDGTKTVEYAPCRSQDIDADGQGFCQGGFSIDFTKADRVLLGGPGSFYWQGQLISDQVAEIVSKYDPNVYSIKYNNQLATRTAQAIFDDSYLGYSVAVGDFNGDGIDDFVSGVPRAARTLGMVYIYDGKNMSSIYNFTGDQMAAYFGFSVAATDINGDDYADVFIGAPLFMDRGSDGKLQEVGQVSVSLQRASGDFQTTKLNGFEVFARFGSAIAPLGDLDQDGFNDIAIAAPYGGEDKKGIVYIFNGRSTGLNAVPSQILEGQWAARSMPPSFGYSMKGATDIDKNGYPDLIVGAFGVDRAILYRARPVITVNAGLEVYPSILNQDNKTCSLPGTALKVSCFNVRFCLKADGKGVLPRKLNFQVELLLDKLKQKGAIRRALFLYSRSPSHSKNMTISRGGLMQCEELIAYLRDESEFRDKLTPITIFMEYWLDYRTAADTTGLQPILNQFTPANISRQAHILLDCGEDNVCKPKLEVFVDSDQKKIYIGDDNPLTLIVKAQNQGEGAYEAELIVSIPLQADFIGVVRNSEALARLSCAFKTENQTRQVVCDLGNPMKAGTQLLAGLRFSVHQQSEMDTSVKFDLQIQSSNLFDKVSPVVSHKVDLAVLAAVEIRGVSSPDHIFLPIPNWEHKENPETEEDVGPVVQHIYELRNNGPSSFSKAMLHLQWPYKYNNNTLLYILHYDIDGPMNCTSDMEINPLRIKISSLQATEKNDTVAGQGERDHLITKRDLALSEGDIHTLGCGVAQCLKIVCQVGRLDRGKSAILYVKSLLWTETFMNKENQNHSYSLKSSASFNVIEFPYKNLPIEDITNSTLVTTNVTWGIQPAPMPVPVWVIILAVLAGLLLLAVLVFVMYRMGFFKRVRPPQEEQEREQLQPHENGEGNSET
T1 chain 2: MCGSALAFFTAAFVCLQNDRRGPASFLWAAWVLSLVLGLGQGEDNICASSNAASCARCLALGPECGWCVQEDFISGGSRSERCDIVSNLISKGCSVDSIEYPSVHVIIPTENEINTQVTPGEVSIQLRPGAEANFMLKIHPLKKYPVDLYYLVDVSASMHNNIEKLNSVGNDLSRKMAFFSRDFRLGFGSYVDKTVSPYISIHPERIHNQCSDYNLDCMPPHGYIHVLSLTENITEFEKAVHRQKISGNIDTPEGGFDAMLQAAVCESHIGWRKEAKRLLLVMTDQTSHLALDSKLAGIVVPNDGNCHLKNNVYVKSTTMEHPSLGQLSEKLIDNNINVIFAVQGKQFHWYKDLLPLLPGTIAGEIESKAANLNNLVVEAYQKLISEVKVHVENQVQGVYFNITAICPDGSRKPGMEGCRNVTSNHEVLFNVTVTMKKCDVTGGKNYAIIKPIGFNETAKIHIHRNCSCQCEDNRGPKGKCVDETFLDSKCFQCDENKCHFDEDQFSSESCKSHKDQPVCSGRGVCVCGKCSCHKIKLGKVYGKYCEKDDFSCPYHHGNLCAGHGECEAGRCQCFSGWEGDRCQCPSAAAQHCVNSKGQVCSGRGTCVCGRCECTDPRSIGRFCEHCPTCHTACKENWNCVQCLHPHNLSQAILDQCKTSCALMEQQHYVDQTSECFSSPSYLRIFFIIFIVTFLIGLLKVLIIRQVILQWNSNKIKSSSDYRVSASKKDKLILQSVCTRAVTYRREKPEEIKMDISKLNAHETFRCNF


Target: T1, cynomolgus integrin avb8
Assay: SPR 25C

Kd | Binder
0.507 nM | Mouse hybridoma ADWA-11 Fab (antibody, V domains shown) VH: EVQLQQSGAELVRPGAFVKLSCKASGFNIKDYYMNWVLQRPEQGLEWIGWIDPDNGNTIYDPKFQGKASITADTSSNTAYLQLSSLTSEDTAVYYCARRLLMDYWGQGTSVTVSS VL: DIVMTQAAPSVPVTPGESVSISCRSTKSLLHFNGNTYLFWFLQRPGQSPQRLIYYMSNLASGVPDRFSGRGSGTDFTLRISRVEAEDVGVYYCMQSLEYPFTFGTGTKLEIK
< 0.1 nM | ADWA11 VH05/VK01 (VH05-2_VK01) Fab (antibody, V domains shown) VH: EVQLVESGGGLVQPGGSLRLSCAASGFNIKDYYMNWVRQAPGKGLEWVGWIDPDNGNTIYDPKFQGRFTISADTSKNSAYLQMNSLRAEDTAVYYCARRLLMDYWGQGTLVTVSS VL: DIQMTQSPSSLSASVGDRVTITCRSTKSLLHFNGNTYLFWYQQKPGKAPKRLIYYMSNLASGVPSRFSGSGSGTDFTLTISSLQPEDFATYYCMQSLEYPFTFGQGTKVEIK
< 0.2 nM | ADWA11 2.4 Fab (antibody, V domains shown) VH: EVQLVESGGGLVQPGGSLRLSCAASGFNIKDYYMNWVRQAPGKGLEWVGWIDPDQGNTIYEPKFQGRFTISADTSKNSAYLQMNSLRAEDTAVYYCARRLLMDYWGQGTLVTVSS VL: DIQMTQSPSSLSASVGDRVTITCRSTKSLSHFNGNTYLFWYQQKPGKAPKRLIYYMSSLASGVPSRFSGSGSGTDFTLTISSLQPEDFATYYCQQSLEYPFTFGGGTKVEIK
